Non-standard residues stand in square brackets, D forms with d. Primed or numbered codes have the meaning given here. azaGly′ = aza-glycine residue at the C-terminus, with NH2; Bpa = N[C@@H](Cc1ccc(C(=O)c2ccccc2)cc1)C(=O)O; d2Nal = N[C@H](Cc1ccc2ccccc2c1)C(=O)O; 3Pal = N[C@@H](Cc1cccnc1)C(=O)O; DO3A10CM = not defined here; Bpa4 = non-natural residue; Ahgly = not defined here; Ampa4 = not defined here; Ampg4 = not defined here; Gufe4 = not defined here; dAfe4 = not defined here; azaGly = NNC(=O)O; Sar = CNCC(=O)O
B1: BRU-2765 (peptide)
peptide: XHWSHXWXPX
modifications: DO3A10CM on N-terminus; AA1 Sar; AA6 Darg; AA8 Ing2; AA10 azaGly-NH2
B2: BRU-2881 (peptide)
peptide: XHWSHXWXPX
modifications: AA1 Ac-Amfe4 with (DO3A10CM) as printed; AA6 Darg; AA8 Bpa4; AA10 azaGly-NH2
B3: BRU-2817 (peptide)
peptide: XRWSHXWXPX
modifications: DO3A10CM on N-terminus; AA1 Sar; AA6 Darg; AA8 Bpa4; AA10 azaGly-NH2
B4: BRU-2985 (peptide)
peptide: XRWSHXWXP
modifications: not fully specified; DO3A10CM on N-terminus; AA1 Dnal2; AA6 Darg; AA8 Bpa4; AA10 A1guao3pt
B5: BRU-3007 (peptide)
peptide: XRWSHXWXP
modifications: AA1 Sar; AA6 Darg; AA8 Bpa4; AA10 Da15o3pt
B6: BRU-3060 (peptide)
peptide: DO3A10CM-[d2Nal][Ampg4]WSH[dR]W[Bpa]P[azaGly′]-NH2
modifications: not fully specified; printed as DO3A10CM-Dnal2-Ampg4-Trp-Ser-His-Darg-Trp-Bpa4-Pro-azaGly-NH2; reading uncertain
B7: BRU-2760 (peptide)
peptide: XHWSHXWXPX
modifications: DO3A10CM on N-terminus; AA1 Sar; AA6 Darg; AA8 Amfe4; AA10 azaGly-NH2
B8: BRU-2788 (peptide)
peptide: XHWSHXWXPX
modifications: DO3A10CM on N-terminus; AA1 EtGly; AA6 Darg; AA8 Bpa4; AA10 azaGly-NH2
B9: BRU-2876 (peptide)
peptide: DO3A10CM-G[Ahgly]HWSH[dR]W[Bpa]P[azaGly]-NH2
modifications: not fully specified; reading uncertain
B10: BRU-3051 (peptide)
peptide: XRWSHXWXPX
modifications: DO3A10CM on N-terminus; AA1 Nal2; AA6 Darg; AA8 Bpa4; AA10 azaGly-NH2
B11: BRU-2971 (peptide)
peptide: DO3A10CM-[d2Nal]RWSH[dR]W[Bpa]PGQ-NH2
modifications: reading uncertain
B12: BRU-3052 (peptide)
peptide: GXRWSHXWXPX
modifications: DO3A10CM-Gly (linker) on N-terminus; AA1 Tic; AA6 Darg; AA8 Bpa4; AA10 azaGly-NH2
B13: BRU-2439 (peptide)
peptide: XHWSHXWYPX
HELM: PEPTIDE1{[Sar].H.W.S.H.[dR].W.Y.P.[O=C(NN[*:1])[*:2]].[am]}$$$$V2.0; N-terminus assumed
SMILES: CNCC(=O)N[C@@H](Cc1c[nH]cn1)C(=O)N[C@@H](Cc1c[nH]c2ccccc12)C(=O)N[C@@H](CO)C(=O)N[C@@H](Cc1c[nH]cn1)C(=O)N[C@H](CCCNC(=N)N)C(=O)N[C@@H](Cc1c[nH]c2ccccc12)C(=O)N[C@@H](Cc1ccc(O)cc1)C(=O)N1CCC[C@H]1C(=O)NNC(N)=O
B14: BRU-2983 (peptide)
peptide: XRWSHXWXP
modifications: DO3A10CM on N-terminus; AA1 Dnal2; AA6 Darg; AA8 Bpa4; AA10 Pheol
B15: BRU-3021 (peptide)
peptide: XRWSHXWXP
modifications: DO3A10CM on N-terminus; AA1 Dnal2; AA6 Darg; AA8 Bpa4; AA10 Az23m2po-NH2
B16: BRU-3067 (peptide)
peptide: GXRWSHXWXPX
modifications: DO3A10CM-Gly (linker) on N-terminus; AA1 Dtic; AA6 Darg; AA8 Bpa4; AA10 azaGly-NH2
B17: BRU-2819 (peptide)
peptide: XHWSHXWXPX
modifications: DO3A10CM on N-terminus; AA1 Sar; AA6 Darg; AA8 Dtyr(OBz); AA10 azaGly-NH2
B18: BRU-2984 (peptide)
peptide: XRWSHXWXP
modifications: DO3A10CM on N-terminus; AA1 Dnal2; AA6 Darg; AA8 Bpa4; AA10 Gua (guanidine)
B19: BRU-3058 (peptide)
peptide: DO3A10CM-[d2Nal][Gufe4]WSH[dR]W[Bpa]P[azaGly′]-NH2
modifications: reading uncertain
B20: BRU-3020 (peptide)
peptide: XRWSHXWXP
modifications: DO3A10CM on N-terminus; AA1 Dnal2; AA6 Darg; AA8 Bpa4; AA10 Mo2abn
B21: BRU-3059 (peptide)
peptide: DO3A10CM-[d2Nal][Ampa4]WSH[dR]W[Bpa]P[azaGly′]-NH2
modifications: not fully specified; printed as DO3A10CM-Dnal2-Ampa4-Trp-Ser-His-Darg-Trp-Bpa4-Pro-azaGly-NH2; reading uncertain
B22: BRU-2969 (peptide)
peptide: DO3A10CM-[d2Nal]RWSH[dR]W[Bpa4]PGR-NH2
modifications: reading uncertain
B23: BRU-3006 (peptide)
peptide: XRWSHXWXP
modifications: DO3A10CM on N-terminus; AA1 Dnal2; AA6 Darg; AA8 Bpa4; AA10 Ap (aminophenyl)
B24: BRU-2719 (peptide)
peptide: XXWSHXWXPX
modifications: DO3A10CM on N-terminus; AA1 Sar; AA2 4ClPhe; AA6 Darg; AA8 Bpa4; AA10 azaGly-NH2
B25: BRU-2907 (peptide)
peptide: XHWSHXWXPX
modifications: DO3A10CM on N-terminus; AA1 Sar; AA6 Darg; AA8 Bpa(NOH); AA10 azaGly-NH2
B26: BRU-2815 (peptide)
peptide: DO3A10CM-[Sar][dAfe4]WSH[dR]W[Bpa]P[azaGly]-NH2
modifications: reading uncertain
B27: BRU-2809 (peptide)
peptide: XHWSHXWXPX
modifications: DO3A10CM on N-terminus; AA1 Nal2; AA6 Darg; AA8 Bpa4; AA10 azaGly-NH2
B28: BRU-2818 (peptide)
peptide: DO3A10CM-[Sar][3Pal]WSH[dR]W[Bpa]P[azaGly]-NH2
modifications: reading uncertain

The binders below were run against LHRH binding sites on EFO-27 human ovarian cancer cells (human) (assay: competition with [125I-Tyr8]BRU-2477 on EFO-27 cells).

EC50 [nM] | Binder
8710 | B1
1380 | B2
1700 | B3
460 | B4
220 | B5
340 | B6
3550 | B7
210 | B8
500 | B9
620 | B10
490 | B11
550 | B12
250 | B13
450 | B14
500 | B15
510 | B16
770 | B17
400 | B18
260 | B19
450 | B20
410 | B21
240 | B22
420 | B23
630 | B24
1900 | B25
7250 | B26
3540 | B27
1620 | B28

What follows are binders tested against LHRH receptor (LHRH binding sites) on EFO-27 human ovarian cancer cells (human) (assay: competition with [125I-Tyr8]BRU-2477, EFO-27 cells).

EC50 [nM] | Binder
460 | B4
220 | B5
340 | B6
500 | B9
490 | B11
250 | B13
450 | B14
500 | B15
400 | B18
260 | B19
450 | B20
410 | B21
240 | B22
420 | B23

— patent publication US20120045393A1 (priority 2009, published 2012)
